Data reported in patent publication US20140357838A1, “N-Terminally Modified Insulin Derivatives” (Novo Nordisk A/S, priority 2011, published 2014).
Starred links: 1 amine or outer side, 2 acyl side, 3 side chain; linkers in the order of their positions; H or OH if unused. Positions of bridges follow the written chain, without caps; N, C: chain ends. Groups on a side chain read outwards from the residue. Chains are numbered I, II in the order given. No end group written: not given here. *: point of attachment. Phe(Nα-CONH2) = NC(=O)N[C@@H](Cc1ccccc1)C(=O)*; C20 diacid = O=C(O)CCCCCCCCCCCCCCCCCCC(=O)*; C18 diacid = O=C(O)CCCCCCCCCCCCCCCCC(=O)*; NMe2Phe = CN(C)[C@@H](Cc1ccccc1)C(=O)*; γGlu = O=C(O)[C@H](CCC(=O)[*:2])N[*:1]; Hydantoyl = NC(=O)NCC(=O)*; AEEA = NCCOCCOCC(=O)O; Me2Gly = CN(C)CC(=O)*

What was measured:
human insulin receptor [1] = target: T1, human insulin receptor (Homo sapiens, UniProt P06213); test: Insulin receptor affinity, SPA assay with […] HSA in binding buffer; conditions: relative to the affinity of human insulin
Experimental: (§1) SPA-PVT antibody-binding beads, anti-mouse reagent (Amersham Bio-sciences, Cat No. PRNQ0017) are mixed with 25 ml of binding buffer (100 mM HEPES pH 7.8; 100 mM sodium chloride, 10 mM MgSO4, 0.025% Tween-20). […] A total of 100 μl reagent mix is then added to each well in the Packard Optiplate and a dilution series of the N-terminally modified insulin is made in the Optiplate from appropriate samples. The samples are then incubated for 16 hours while gently shaken. The phases are the then separated by centrifugation for 1 min and the plates counted in a Topcounter.

human insulin receptor [2] = target: T1, human insulin receptor; test: Insulin receptor affinity, SPA antibody capture assay (0% HSA); format: binding; conditions: relative to the affinity of human insulin
Experimental: as §1

[3] = Hydrophobicity by isocratic reverse phase HPLC; format: physicochemical; conditions: k'rel, isocratic RP-HPLC, pH 7.3, human insulin = 1
Experimental: The hydrophobicity of an N-terminally modified insulin is found by reverse phase HPLC run under isocratic conditions. […] The hydrophobicity, k′rel, is calculated as: k′relderiv=((tderiv−t0)(tref−t0)*k′relref. Using HI as reference: k′relref=k′relHI=1. The void time of the HPLC system, t0, is determined by injecting 5 μl of 0.1 mM NaNO3. Running conditions:
Column: Lichrosorb RP-C18, 5 μm, 4×250 mm
Buffer A: 0.1 M natrium phosphate pH 7.3, 10 vol % CH3CN
After running an initial gradient, the isocratic level for running the derivative and reference (for example HI) is chosen, and the elution times of the derivative and reference under isocratic conditions are used in the above equation to calculate k′relderiv.

duodenum lumen enzymes = test: Degradation of insulin analogs using duodenum lumen enzymes; format: in vitro ADME; conditions: rat duodenum lumen enzymes, 100 mM Hepes pH 7.4, 37° C.; degradation half time divided by that of reference insulin
Experimental: Degradation of insulin analogs using duodenum lumen enzymes (prepared by filtration of duodenum lumen content) from SPD rats. The assay is performed by a robot in a 96 well plate (2 ml) with 16 wells available for insulin analogs and standards. Insulin analogs ˜15 μM are incubated with duodenum enzymes in 100 mM Hepes, pH=7.4 at 37° C., samples are taken after 1, 15, 30, 60, 120 and 240 min and reaction quenched by addition of TFA. Intact insulin analogs at each point are determined by RP-HPLC. […] The amount of enzymes added for the degradation is such that the half time for degradation of the reference insulin is between 60 min and 180 min.

[4] = Chemical stability of insulin derivatives in 2 mM phosphate (SEC-HPLC and RP-HPLC); format: physicochemical; conditions: 4 weeks 37° C. minus 5° C. start sample; for HMWP Formation (%) (4 weeks 37° C.- 0 weeks 5° C.): pH 7.5, SEC-HPLC
Experimental: Chemical stability of an insulin derivative is assessed after incubating insulin derivative in 2 mM phosphate, pH=7.5 at 37° C. for up to 8 weeks. Formation of high molecular weight products (HMWP) is determined by SEC HPLC analysis after 0, 2, 4 and optionally 8 weeks. The results of the SEC method are given as a difference between HMWP formation at 37° C. and 5° C. start sample as a percentage of total absorbance at 215 nm. Chemical degradation products are determined by RP HPLC analysis after 0, 2, 4 and optionally 8 weeks. The results of the RP method are given as a difference between chemical degradation observed at 37° C. and 5° C. start sample as a percentage of total absorbance at 215 nm.
• Solvent: 500 mM NaCl, 10 mM NaH2PO4, 5 mM H3PO4, 50% (v/v) 2-propanol • Flow: 0.5 ml/min • Run time: 30 min • UV Detection: 215 nm • Column: Insulin HMWP column from Waters 7.8×300 mm • Temperature: 50° C.
• Solvent A: 0.09M phosphate buffer pH 3.6 (di-ammoniumhydrogenphosphate), 10% MeCN (v/v) • Solvent B: 80% MeCN (v/v %) • Flow: 0.3 ml/min • Runtime: 33 min • UV Detection: 215 nm • Column: Waters Acquity BEH130 C18 Column 1.7 μm, 150×2.1 mm • Temperature: 50° C. • Gradient: […]

[5] = Thioflavin T (ThT) fibrillation assay; format: physicochemical; conditions: same experiment as prior art derivatives, 37° C., 960 rpm, pH 7.4, mean ± SD
Source text: This has traditionally been measured by visual inspection of the sample. However, that kind of measurement is very subjective and depending on the observer. Therefore the application of a small molecule indicator probe is much preferred. […] The time course for fibril formation can be described by a sigmoidal curve with the following expression (Nielsen at al. Biochemistry 40, 6036-6046, 2001):
Here, F is the ThT fluorescence at the time t. The constant t0 is the time needed to reach 50% of maximum fluorescence. The two important parameters describing fibril formation are the lag-time calculated by t0-2[…] and the apparent rate constant kapp=1/{tilde over (□)}.
Samples were prepared freshly before each assay. Each analog was dissolved in 2 mM sodium phosphate, pH=7.4. Thioflavin T was added to the samples from a stock solution in water to a final concentration of 1 μM. Sample aliquots of 200 μl were placed in a 96 well microtiter plate (Packard Optiplate™-96, white polystyrene). Usually four replica of each sample (corresponding to one test condition) were placed in one column of wells. The plate was sealed with Scotch Pad (Qiagen).
Incubation at given temperature, shaking and measurements of the ThT fluorescence emission were done in either a Fluoroskan Ascent FL or Varioskan fluorescence plate reader (thermo Labsystems). The temperature was adjusted to 37° C. […] Fluorescence measurements were done using excitation through a 444 nm filter and measurement of emission through a 485 nm filter.
Each run was initiated by incubating the plate at the assay temperature for 10 min. The plate was measured every 20 minutes for typically 45 hours. Between each measurement, the plate was shaken and heated as described above.
The measurement data points were saved in Microsoft Excel format for further processing and curve drawing and fitting was performed using Graph Pad Prism. […] The data points are typically a mean of four samples. Only data obtained in the same experiment (i.e. samples on the same plate) are presented in the same graph ensuring a relative measure of fibrillation between the individual samples of one assay rather then comparison between different assays. The data set may be fitted to Eq. (1). However since the full sigmoidal curves are not usually achieved during the measurement time, the degree of fibrillation is expressed as ThT fluorescence at various time points calculated as the mean of the four samples and shown with the standard deviation

Primary rat adipocytes = test: Lipogenesis in rat adipocytes; format: cell-based; conditions: relative potency vs human insulin
Source text: As a measure of in vitro potency of the insulins of the invention, lipogenesis can be used.
The labelled glucose is converted into extractable lipids in a dose dependent way, resulting in full dose response curves.

T1 sequence (P06213 28-746 isoform P06213-2 limits assumed): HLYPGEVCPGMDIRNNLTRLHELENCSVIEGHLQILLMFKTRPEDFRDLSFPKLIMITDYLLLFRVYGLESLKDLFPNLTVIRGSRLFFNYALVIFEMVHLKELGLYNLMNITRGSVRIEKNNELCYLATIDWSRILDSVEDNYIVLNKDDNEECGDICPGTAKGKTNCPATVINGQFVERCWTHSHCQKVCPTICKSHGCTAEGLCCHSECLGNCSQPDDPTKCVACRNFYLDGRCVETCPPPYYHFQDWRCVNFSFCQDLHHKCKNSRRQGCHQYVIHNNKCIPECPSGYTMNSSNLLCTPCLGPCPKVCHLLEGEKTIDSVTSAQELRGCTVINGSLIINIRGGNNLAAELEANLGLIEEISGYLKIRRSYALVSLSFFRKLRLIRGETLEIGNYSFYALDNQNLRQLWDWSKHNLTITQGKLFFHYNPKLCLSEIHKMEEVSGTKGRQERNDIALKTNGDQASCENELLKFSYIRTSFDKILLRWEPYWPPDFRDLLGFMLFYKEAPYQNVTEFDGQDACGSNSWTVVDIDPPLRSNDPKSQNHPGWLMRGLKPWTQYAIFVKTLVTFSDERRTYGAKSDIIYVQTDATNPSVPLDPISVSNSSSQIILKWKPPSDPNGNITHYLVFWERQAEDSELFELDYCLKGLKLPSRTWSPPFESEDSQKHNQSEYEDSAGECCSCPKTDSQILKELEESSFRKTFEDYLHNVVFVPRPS
T1 sequence (P06213 763-1382 partner limits assumed): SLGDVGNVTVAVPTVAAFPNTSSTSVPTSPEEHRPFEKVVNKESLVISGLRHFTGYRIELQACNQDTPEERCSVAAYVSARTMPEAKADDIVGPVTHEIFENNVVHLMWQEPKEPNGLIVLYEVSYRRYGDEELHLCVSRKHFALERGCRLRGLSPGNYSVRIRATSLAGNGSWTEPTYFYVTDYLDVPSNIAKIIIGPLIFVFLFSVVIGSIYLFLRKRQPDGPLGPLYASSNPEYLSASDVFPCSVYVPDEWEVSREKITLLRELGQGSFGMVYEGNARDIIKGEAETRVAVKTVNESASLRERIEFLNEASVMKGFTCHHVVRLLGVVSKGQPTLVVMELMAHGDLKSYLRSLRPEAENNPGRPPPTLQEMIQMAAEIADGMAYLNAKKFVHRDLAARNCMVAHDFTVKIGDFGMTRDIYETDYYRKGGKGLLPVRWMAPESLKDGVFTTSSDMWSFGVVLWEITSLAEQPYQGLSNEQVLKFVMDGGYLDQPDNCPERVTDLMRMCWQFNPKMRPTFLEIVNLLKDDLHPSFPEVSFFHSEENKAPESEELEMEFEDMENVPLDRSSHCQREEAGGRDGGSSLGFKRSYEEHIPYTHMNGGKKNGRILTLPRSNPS

For “I: NMe2Phe-VCQHLCGSHLVEALHLVCGERGFHYTPK([AEEA-AEEA-γGlu-C20 diacid]) / II: Me2Gly-IVEQCCTSCCSLEQLENYCN (disulfide I:2-II:9, I:6-II:6, I:18-II:19, II:5-II:10) [Example 28, A1(N^α,N^α-Dimethyl), A10C, A14E, B1(N^α,N^α-dimethyl), B3C, B16H, B25H, B29K(N^εeicosanedioyl-gGlu-2×OEG), desB30 Human Insulin]”, the “Relative IR-A affinity (@ […] HSA) (%)e” value (human insulin receptor [1]) was 0.01%, the “Relative IR-A affinity (@ 0% HSA) (%)” value (human insulin receptor [2]) was 0.1% and the “Hydrophobicity rel. to human insulin” value [3] was 0.298. The “Stability towards duodenum lumen enzymes (fold relative to A14E, B25H, desB30 human insulin)” value (duodenum lumen enzymes) was 1.6 fold.
With “I: NMe2Phe-VCQHLCGSHLVEALYLVCGERGFHYPK([AEEA-AEEA-γGlu-C18 diacid]) / II: Me2Gly-IVEQCCTSCCSLEQLENYCN (disulfide I:2-II:9, I:6-II:6, I:18-II:19, II:5-II:10) [Example 11, A1(N^α,N^α-Dimethyl), A10C, A14E, B1(N^α,N^α-dimethyl), B3C, B25H, desB27, B29K(N^εoctadecanedioyl-gGlu-2×OEG), desB30 Human Insulin]” the “Relative IR-A affinity (@ […] HSA) (%)e” value (human insulin receptor [1]) was 0.04%, the “Relative IR-A affinity (@ 0% HSA) (%)” value (human insulin receptor [2]) was 0.6% and the “Chemical degradation (%) (4 weeks 37° C.- 0 weeks 5° C.)” value ([4]; pH 7.5, RP-HPLC) was 3.2%. For the same substance, the “HMWP Formation (%) (4 weeks 37° C.- 0 weeks 5° C.)” value [4] was −0.2%, the “Hydrophobicity rel. to human insulin” value [3] was 0.095 and the “ThT 0 h” value [5] was 31 ± 0.4. For the same substance, the “ThT 5 h” value [5] was 23 ± 0.4, the “ThT 10 h” value [5] was 23 ± 0.6 and the “ThT 30 h” value [5] was 21 ± 0.2. The “ThT 40 h” value [5] was 21 ± 0.3.
In the case of “I: NMe2Phe-VCQHLCGSHLVEALYLVCGERGFHYTPK([AEEA-AEEA-γGlu-C20 diacid]) / II: Me2Gly-IVEQCCTSCCSLEQLENYCN (disulfide I:2-II:9, I:6-II:6, I:18-II:19, II:5-II:10) [Example 2, A1(N^α,N^α-Dimethyl), A10C, A14E, B1(N^α,N^α-dimethyl), B3C, B25H, B29K(N^εeicosanedioyl-gGlu-2×OEG), desB30 Human Insulin]”, the “Lipogenesis in rat adipocytres (@ 0.1% HSA) rel. to human insulin (%)” value (Primary rat adipocytes) is reported as 0.025%, the “HMWP Formation (%) (4 weeks 37° C.- 0 weeks 5° C.)” value [4] is reported as 0.0% and the “Hydrophobicity rel. to human insulin” value [3] is reported as 0.38. For the same substance, the “ThT 0 h” value [5] was 35 ± 0.9, the “ThT 5 h” value [5] was 22 ± 0.4 and the “ThT 10 h” value [5] was 22 ± 0.3. The “ThT 30 h” value [5] was 20 ± 0.3 and the “ThT 40 h” value [5] was 19 ± 0.3.
For “I: {Phe(Nα-CONH2)}-VCQHLCGSHLVEALYLVCGERGFFYPK([AEEA-AEEA-γGlu-C18 diacid]) / II: Hydantoyl-IVEQCCTSCCSLEQLENYCN (disulfide I:2-II:9, I:6-II:6, I:18-II:19, II:5-II:10) [Example 33, A1(N^α-Carbamoyl), A10C, A14E, B1(N^α-carbamoyl), B3C, desB27, B29K(N^εoctadecanedioyl-gGlu-2×OEG), desB30 Human Insulin]”, the “Relative IR-A affinity (@ 0% HSA) (%)” value (human insulin receptor [2]) was 0.6% and the “Stability towards duodenum lumen enzymes (fold relative to A14E, B25H, desB30 human insulin)” value (duodenum lumen enzymes) was 1.6 fold.
For “I: {Phe(Nα-CONH2)}-VCQHLCGSHLVEALYLVCGERGFHYPK([AEEA-AEEA-γGlu-C20 diacid]) / II: Hydantoyl-IVEQCCTSCCSLEQLENYCN (disulfide I:2-II:9, I:6-II:6, I:18-II:19, II:5-II:10) [Example 46, A1(N^α-Carbamoyl), A10C, A14E, B1(N^α-carbamoyl), B3C, B25H, desB27, B29K(N^εeicosanedioyl-gGlu-2×OEG), desB30 Human Insulin]”, the “Relative IR-A affinity (@ […] HSA) (%)e” value (human insulin receptor [1]) was 0.01%, the “Relative IR-A affinity (@ 0% HSA) (%)” value (human insulin receptor [2]) was 0.1% and the “Hydrophobicity rel. to human insulin” value [3] was 0.132. For the same substance, the “Stability towards duodenum lumen enzymes (fold relative to A14E, B25H, desB30 human insulin)” value (duodenum lumen enzymes) was 1.2 fold.
For “I: {Phe(Nα-CONH2)}-VCQHLCGSHLVEALYLVCGERGFHYPK([γGlu-C18 diacid]) / II: Hydantoyl-IVEQCCTSCCSLEQLENYCN (disulfide I:2-II:9, I:6-II:6, I:18-II:19, II:5-II:10) [Example 34, A1(N^αCarbamoyl), A10C, A14E, B1(N^αcarbamoyl), B3C, B25H, desB27, B29K(N^εoctadecanedioyl-gGlu), desB30 Human Insulin]”, the “Relative IR-A affinity (@ […] HSA) (%)e” value (human insulin receptor [1]) was 0.00%, the “Relative IR-A affinity (@ 0% HSA) (%)” value (human insulin receptor [2]) was 0.1% and the “ThT 0 h” value [5] was 20 ± 0.1. The “ThT 5 h” value [5] was 13 ± 0.7, the “ThT 10 h” value [5] was 13 ± 0.8 and the “ThT 30 h” value [5] was 13 ± 0.4. For the same substance, the “ThT 40 h” value [5] was 13 ± 0.3 and the “Stability towards duodenum lumen enzymes (fold relative to A14E, B25H, desB30 human insulin)” value (duodenum lumen enzymes) was 1.8 fold.
